14 sequences from a protein production outcome set (Wang et al. 2014) can be followed below.

This data set can be described thus: label from the status in PepcDB records.

With “MPNGPTCAARRARARSALVGGEGFRMEWSGKRVSDGSATRPTVAAWVSGGFGSGESVAAFKALATEAEAGDASAQRRLGLCFRDGLGTDRDIHRAKAWYQRSAAQNDPMAALELGLMLESGLGISSDHGEAGKWYRVALDLWRDRAEGGDALGQFVLGLCHEVGAGVPAAHREALKWYGRSAERGCAHAQWALGRLHEDGLGVVRDYSEAVRCYRAAAFQGHARACFNLGLMAELGLGMVRDADCSASWYGKALEVWRRWAELGDPAAATALAAMYEAGHGVAKDYAVAVCWYRRAARQGNPLAQFELGRLSMEGRGVERNDVEAVGWFRLAAERGHADAQFHLGLMHEHGRGVTRRFEEAFRWYDKAADEGPARRWDAFHRLVPAAGEVPEGCGLGAW”, the protein production entry is on record as “failed”.

Consider “MPNHQPVKKFKIIGGACKGLGLNLPNISSTRPTKAIVRESFFNTLQAEINGAHFIEVFSGSASMGLEALSRGAKSAVFFEQNKSAYKTLLENISLFKNRLKKEMEIQTFLDDAFKLLPTLCLKNGVLNIIYLDPPFETSGFLGIYEKCFQALERLLKRFNPKNLLVVFEHESMHEMPKSLVTLAIIKQKKFGKTTLTYFQ”, for which the protein production result is “failed”.

Consider “MPNLSCGVDNCAYNQNDMCSLNSIKVNGSFANHSEATCCGSFVEKGGFTNAAVDMGPAEPATSVACEAEKCCYNKNCKCHAESIDISGDYAQHQDNTECSTFRQELEHHHHHH”, for which the protein production entry is on record as “not failed”.

Take “MPNNVKITSSHRVLMIALLAAAFACYLLVEPYINSIVMAFIISLLMFPVHEWFERKMPKHKNSASLLTCVVLTFIIVIPLLFVFAAIVQQGSVFSQNTYKWVTNGGIQDIFQHPWVIKGLSIVNEYLPFDKIEPKAIAEKIGQFATTFGSNLVAISAKILGDATNFLMDFFLMLFVLFFLLRDHDKIISAIRHILPLSRSQEDRILTEIEQVSKSAVMGSFLTAIAQGLAGGIGMWLAGFPGLFWGTMMGFASFIPVVGTALIWIPAAAYLFLTGDMTWAIFLTAWSVVIVGSIDNLLRPLLMQGSAGMNTLMIFFSLLGGLHLFGLIGLIYGPLIFAVTMVLFNIYEEEFKDFLNQQDNS”: the protein production entry was “failed”.

Take “MPNQSNESRPFHKDLESILYAHVPLPMFTMDEEGALLNMNEGAMETLRVDWEQNQRSSVFQLFESECRESLYLALATVNKISQVEKVELIKRNGETFETFCLSLQLLPDKQVIAFIAPLIDKGMDPLTGVPIRQEVPRLMERTFQENQAETYVLFLINLDRFKLVNDSLGEGYGDQVLQTLVRRLLWQLPNQQWIARVSGDEFIACAAIKGELPKKETLATYISSIIQQPFQVDEVQFTMTASIGAAVYPMDGKSVEMIWNSLERALRHAKARGGNCVSWFCQELKDEWIHPFRLENDLRRAVENQELELYFQPIFETTTGEHCGEEVLVRWNHPALGVLGPNFFIPVAEEIGLIGVVGKWVLDEACKQKALLIEKEASSVPMSVNLSLRQFLQPDIVDMILDSLNKYGLDPSLLEVEVTERITIDMNRAMKVLQKLRAQGIRVSLDDFGTGYSSLQYISQLPIQKLKIDKSFIAEIGVNSQVEAIISMIIHLGHELDLTVVAEGVETEKQLSFLKEKKCDTVQGYYHAKPLTFSEFKKYLLS”: the protein production entry was “failed”.

Take “MPPGTTLQGGKYRLEQVLGQGGFGITYLGSQTQLGARVAIKELFPSGSTRQSGQYVLPPAGTDPAGWAQAKQDFTAEGRTVARFNHPDIVRVMDLFEENGTAYLVMEFLEGQTLGSAIEKRGPLPPDEVVNIAKRVLGALSVVHSAGMLHRDIKPDNIYLDKAGRTVLIDFGSARTFAAGQTVSHTRLVTPGYAPLEQYSGSAKFGPYTDIYALGATLYHALTGHPPTPATDRTMGTPLAPLPPNTPPALREAIERSLAIKINERPQSTQEVLALLNQVSVAPQSAPAAPAPRPTPPQRNQTFPPAPQPTPQRQPQRPPQPVPQPPAQRRRGPGCGCLFPLLLLGGLALYGMNVLGPLLSPSQTETTTTSEQTQPEPPAQTPTTPTEDPTIPQAPGTTDSGQDWQSGDSIDLGLPGSNGETPAQTDNTATPETTTQGNAGTETNPTTTPETNTSTAPTSGELVVTAPNVTLRSAADAAANSLGTLAAGSTVQILQTQDGWYEVQTTSGQRGWVGTDAALPPVSAEALKALQTAAGQGGDVQLSPGVYRLQEPLVLSQDAHLTGAGRDRTWITSAAGNAVLTTRGNVSLQGVTVGWTGQTPGGALLAEGGTVTLRDARLTGGVRDETRNESGSGLQLSQGAQGDVQGSDLVGNAYGASVSDTAQLKLKDSTLSDNSLGGAIFLDSSGGEVRGSTLERNGGDGLTVRHTAAPVIVDSELRDNGERGLSVEGQAKPTVKRVTASGNTLQGIGVQDDAQPQLSNNKLTGNGQEGLTYADRAGGRASENELSGNQVGIAVQGSAAPELRTNIIRDSRDAGLSYAGQAGGTARGNTITGSAKPGISLWGEAQPTLSSNVIQGGAQSGIVFAEHAGGTLDSNEVLGNALSGLVVRDTAAPEVRGNTFQDNGKAAMVYEGEAGGRVSGNTCQGNGSDVIELHLTSVLAGPDLSGASCAVQTQGNW”: the protein production entry was “failed”.

As to “MPPGVAVCFSSLFIRLVCMAFLTSSDKALWHLALPMIFSNITVPLLGLVDTAVIGHLDSPVYLGGVAVGATATSFLFMLLLFLRMSTTGLTAQAYGAKNPQALARTLVQPLLLALGAGALIALLRTPIIDLALHIVGGSEAVLEQARRFLEIRWLSAPASLANLVLLGWLLGVQYARAPVILLVVGNILNIVLDVWLVMGLHMNVQGAALATVIAEYATLLIGLLMVRKILKLRGISGEMLKTAWRGNFRRLLALNRDIMLRSLLLQLCFGAITVLGARLGSDIIAVNAVLMTLLTFTAYALDGFAYAVEAHSGQAYGARDGSQLLDVWRAACRQSGIVALLFSVVYLLAGEHIIALLTSLTQIQQLADRYLIWQVILPVVGVWCYLLDGMFIGATRATEMRNSMAVAAAGFALTLLTLPWLGNHALWLALTVFLALRGLSLAAIWRRHWRNGTWFAAT”, the protein production entry is “failed”.

Take “MPPPIHPSSSAAPGPVPNHLIWAIVSTVLGFCLCCPALISGIVAIVFSSKVNGLLNQGDIDGARRASNTAKTWCIVTSVLAAIGLLINIGMVATGGMQGYMDYMQQLQHMQ”: the protein production entry is given as “failed”.

With “MPPPLPYDAMRSVWTDTAAPAMATAPLAGHADCDVAIVGAGITGLSAALHLAERGLRACVLEARDPGWGASGRNGGQVIPGIKHDPDEILARHGRERGEPLLHMVGTAADTVFDLIDRYGLDLVQAQIRLAAGERLDRVVPADLQPSGHAIELRVYAEDPVRFIPSPGTLAVFELPQGPGVRTETGYHAGNAVSPHYDPMIAKIIVHGADRAQAIARAEQALADTEIAGVKTNLPFLARALAFEPWRQGRLHTGIVARTLAEPAPAALTALEHHHHHH”, the protein production entry is on record as “failed”.

“MPPQRRRRPEPEAPAPGRRGRRPEKKKSRGKRVLLWTGGSMAFVVLVAGVGGYVYLKHLEGNVSTTDVGTAGSSSFKKDEAFNILIIGTDKRTGEGNEGYGDKGSAGHADTNILLHVAEDRSNATALSIPRDLIVDIPDCETTQEDGTKKVIPGTSGVRFNQSLGDFGRDAGCTMRTVAETTGIKPDHFMMADFNAVKTLTTAVDGVDVCVEHAVDDPKSHLKLPAGESKVEGEQALAFVRTRHAFGNEGDLDRIKVQQQFLGSLMRKMASGDTLTSPTKLVKLAEAATKALTVDSAIGKVGTLKDIALELKKVPTKNITFTTVPVIDNPAEKVKATVVVNEAKGPQVFDMIKNDISFTEVEQQKKKEKAAVAARLKGEKSEPGEVRVRVMNGGAPAGSAQQELAYLQTQAGVSKSENAGNAPADIAKTTLEYAPDQADQARALAEILGLTGAAMKPGESVTNSQGLPTMTLTLGKDFKGAGVKLDGSVKKPDLDTESTADQKLCAS”: the protein production result is recorded as “failed”.

Turning to “MPPRIEDILPHRGSMLLLAHVDTWDDETLRASAHVDPTAWYADPEGAMPAWFGIELMAQAIAAHVGLLSMREGNPARPGVLLGSRKYEAHAPAFAPAQPLSIAVQEVLRSTEGHGAYACTIAAGGRDLAQAVIKVYQPTDFQAFIEGLEHHHHHH”, the protein production result is reported as “failed”.

With “MPPRKKPKSSALKSNKQSSANHSSQPSTFGIQQLFLRHIQNSQSTSNSHTSTADPVDQQNVNGLASDTAVLTPQNPLGTSNEKPDESKDMDQQLTEASPKISKNLKRFSPGMLIKQSQDDCGGEITWKISPVNERLRAAAKNIPKMMDLTENSLGKQCPTSGITSKVEQWLSSPSKKASKRPAFATNRVMERVNPSPDAEFEIVNTSSSGNSPFQTPPSLSCPHNKLPCTVTCSGACGSMGAGQHKKALLELLDQVEDVIAVDDKTTDDVGIVMPQARVKDDIISSVVDCAVDEGPVSLPKMQNSINPDSYFLVLEVSEKRGSGSSSKGQCPYKVLRLLDEHTGVECALYLWDEWFYSTVSPGDSINVIGEFDGDGKCDVDRQNNFLIVHPDTLVAGTRVAASFGCPRRTVLDERLRSNEHATVALLGTLQHQVFQAGLSQESPSVDGLQEYASTVIEKSIESLYACGVHEGDVRSTLFKAIPKMLNWIEHFRYSKDSEVSKVDFGSTIGKKAVKVSEVIDIEEMSWAPKYGLKGMIDASVRVIVESDMNTVNEKIMPLEFKSGKAPSGQSSIEHSAQVILYTLLMSERYLKHIDNGLLYYLQSDQTQGISVQRSDLVGLIIRRNELANDILVASTTQQLPPMLRADGGNTESSGLGDVFDTHVSHLSTLHFNFLRHWDRLIDLEGREMQLLRKDIAHPHGSKGSHSASYLSSMVLDVTNGFQHHNSHKETRFIYRFVRQKSSESRERVTSEDMIRTGNLATDDLDCKLRTGDRVILRTEVSHLTVANGIIADISRTHISVSLSKRLRLPWSEPSSEVSNLSHELWRIYKDEFMTSFSVMRFNLMQLFVQNGHNIRKMIVDLEPPRFDNGSILSQDPAISYIWSEKSLNNDQRQAILKILTAKDYALILGMPGTGKTSTMVHAVKALLIRGSSILLASYTNSAVDNLLIKLKAQGIEFLRIGRDEAVHEEVRESCFSAMNMCSVEDIKKKLDQVKVVASTCLGINSPLLVNRRFDVCIIDEAGQIALPVSIGPLLFASTFVLVGDHYQLPPLVQSTEARENGMGISLFRRLSEAHPQAISVLQNQYRMCRGIMELSNALIYGDRLCCGSAEVADATLVLSTSSSTSPWLKKVLEPTRTVVFVNTDMLRAFEARDQNAINNPVEASIIAEIVEELVNNGVDSKDIGIITPYNSQASLIQHAIPTTPVEIHTIDKYQGRDKDCILVSFVRSREKPRSSASSLLGDWHRINVALTRAKKKLIMVGSQRTLSRVPLLMLLLNKVKEQSGILNLLPGDLKP”, the protein production entry is on record as “failed”.

Take “MPQFPWKDNDAELSPLEAFLAEWDDPEAEEEDFRNDFFRGSEGRRKKAAVMLMAIWTVVITLHYWVWGSWLVWALTGALSLQALRLMKATPEEAPPLLTGDASTVPYPQVCLMVAAKNEEAVIGKIVQQLCSLDYPGDRHEVWIVDDNSTDRTPAILDQLRQQYPQLKVVRRGAGASGGKSGALNEVLAQTQGDIVGVFDADANVPKDLLRRVVPYFASPTFGALQVRKAIANEAVNFWTRGQGAEMALDAYFQQQRIVTGGIGELRGNGQFVARQALDAVGGWNEQTITDDLDLTIRLHLHQWKVGILVNPPVEEEGVTTAIALWHQRNRWAEGGYQRYLDYWRWICTQPMGWKKKLDLFSFLLMQYLLPTAAVPDLLMALWQRRFPLLTPLSYLAIGFSCWGMYYGLKRLTPSEGESPWQQMPALLARTIGGTIYMFHWLIIMPAVTARMAFRPKRLKWVKTVHGAATEDALELKQS”: the protein production entry is on record as “failed”.

Regarding “MPQNYPWLNTEQPLSIKQLNGRVVILDFWTYCCINCLHVLPDLKYLEQKYKDSLTVIGVHSAKFDNEQETENIRQAILRYDIEHPVLVDKDFRVWQEYAVRAWPTLMVIDPKGYVIGYVSGEGNRDKLDQLITQVIQEHQGAINFQQLSLTLEKQRQPLITPLAFPGKVLATPSGLFVADSGHHRIVVSDFNGEILHLIGNGKSGLTDGNFQEAQFSAPQGMAFDMENQILYLADTENHALRRVDINQQTVETIAGTGEQSRNIQPHGGVGLETALNSPWDLVNIENSLYIAMAGVHQIWQMDLASGVIKTYAGTGVEACLDASLTESAFAQPSGITNNEQELYIADSEISSIRGVGLVEPQEVRTVCGSGGLFGFGDVDGQGEDVRLQHCLGVEYFQNYLWVADTYNHKIKSVSPHTGNCQTVLGDGLAGLQNGQGKNTRFFEPSGLSAIDSYLYISDTNNHVIRRVDLRTLEVTTMQFNGLCAPDVCIPNNFLEHHHHHH”, the protein production result is “not failed”.
